From US9383360B2, “Compositions and methods relating to lyme disease” (The United States of America, as represented by the …, priority 2012, dated 2016)

Legend:
Assay type in all cases: biochemical
β-casein = target: T1, β-casein (Bos taurus, UniProt P02666); experiment: β-casein zymography; conditions: 1 μg recombinant protein, 12% β-casein zymogram gel, developed 40 h at 37° C., FIG. 12A
T1 construct: purchased Bio-Rad
T1 sequence (P02666 16-224): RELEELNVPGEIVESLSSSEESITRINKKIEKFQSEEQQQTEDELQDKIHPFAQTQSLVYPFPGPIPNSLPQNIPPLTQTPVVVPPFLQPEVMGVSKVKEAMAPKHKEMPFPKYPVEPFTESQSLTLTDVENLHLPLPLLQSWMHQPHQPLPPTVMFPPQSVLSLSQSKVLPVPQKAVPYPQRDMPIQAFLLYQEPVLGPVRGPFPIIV
Procedure: Proteolytic activity was studied by zymography of lysates of the prototype strains of each of the major genospecies of Borrelia that cause Lyme disease. Borrelia burgdorferi (passage 4, non-clonal, infectious strain B31), Borrelia garinii (unknown passage, infectious strain FR-20047) and Borrelia afzelii (unknown passage, infectious strain ACA-1) were grown in Barbour-Stoenner-Kelly media (BSK II) supplemented with 6% rabbit serum at 37° C. Borrelial lysates (˜1×10^8 B. garinii, B. afzelii; ˜5×10^7 B. burgdorferi) and recombinant BbHtrA proteins (1 μg) were subjected to SDS-PAGE electrophoresis using 12% β-casein Zymogram Ready Gels (Bio-Rad). Following electrophoresis, the gels were renatured in 2.5% Triton X-100 (Sigma) for 60 min at 37° C. with a buffer change at 15 min. The gels were developed in Zymogram Development Buffer (BioRad) for 40 h at 37° C. with a buffer change at 15 min. Gels were stained (0.5% Coomassie Brilliant Blue R-250, 40% methanol, 10% glacial acetic acid) for 60 min at room temperature and then destained (40% methanol, 10% glacial acetic acid).

Collagen type II = target: T2, Collagen type II (Homo sapiens, UniProt P02458); experiment: BbHtrA proteolysis assay, collagen type II substrate; conditions: SDS-PAGE, silver stain
T2 construct: Native collagen II and recombinant tenascin C were not degraded by BbHtrA; from tissue
Procedure: (§1) For proteolysis assays described in Examples herein, purified protein substrates (200-600 nM) and proteases (100-150 nM) were diluted in assay buffer (50 mM HEPES, pH 7.4, 5 mM CaCl2) and incubated overnight at 37° C. Samples were boiled for 4 minutes to inactivate the proteases. Proteoglycans were deglycosylated by overnight incubation at 37° C. with 0.01 U chondroitinase ABC (Seikagaku). Reactions were stopped by the addition of SDS/PAGE sample buffer, boiled for 4 minutes, and electrophoresed on pre-cast Tris-glycine gels (BioRad). Reaction products were visualized by silver staining.
(§2) Purified proteins were incubated with BbHtrA or BbHtrA^S226A as described herein. HtrA (also known as DegP) proteases belong to the family of serine proteases which contain a highly reactive serine residue in their active site. This serine (Ser210 in DegP) is part of the canonical His-Ser-Asp catalytic triad and mutation of the catalytic serine abolishes proteolytic activity (Skorko-Glonek et al., 1995). In BbHtrA, residues His119, Ser226 and Asp149 form the catalytic triad and mutation of serine 226 to alanine abolished proteolytic activity as expected (FIG. 5).
(§3) Reaction products were separated by SDS-PAGE and silver stained. Native collagen II and recombinant tenascin C were not degraded by BbHtrA indicating selectivity for proteoglycans, E-cadherin and fibronectin. […]

E-cadherin = target: T3, E-cadherin (Homo sapiens, UniProt P12830); experiment: BbHtrA proteolysis assay, E-cadherin substrate; conditions: SDS-PAGE, FIG. 5
T3 sequence (P12830 155-882): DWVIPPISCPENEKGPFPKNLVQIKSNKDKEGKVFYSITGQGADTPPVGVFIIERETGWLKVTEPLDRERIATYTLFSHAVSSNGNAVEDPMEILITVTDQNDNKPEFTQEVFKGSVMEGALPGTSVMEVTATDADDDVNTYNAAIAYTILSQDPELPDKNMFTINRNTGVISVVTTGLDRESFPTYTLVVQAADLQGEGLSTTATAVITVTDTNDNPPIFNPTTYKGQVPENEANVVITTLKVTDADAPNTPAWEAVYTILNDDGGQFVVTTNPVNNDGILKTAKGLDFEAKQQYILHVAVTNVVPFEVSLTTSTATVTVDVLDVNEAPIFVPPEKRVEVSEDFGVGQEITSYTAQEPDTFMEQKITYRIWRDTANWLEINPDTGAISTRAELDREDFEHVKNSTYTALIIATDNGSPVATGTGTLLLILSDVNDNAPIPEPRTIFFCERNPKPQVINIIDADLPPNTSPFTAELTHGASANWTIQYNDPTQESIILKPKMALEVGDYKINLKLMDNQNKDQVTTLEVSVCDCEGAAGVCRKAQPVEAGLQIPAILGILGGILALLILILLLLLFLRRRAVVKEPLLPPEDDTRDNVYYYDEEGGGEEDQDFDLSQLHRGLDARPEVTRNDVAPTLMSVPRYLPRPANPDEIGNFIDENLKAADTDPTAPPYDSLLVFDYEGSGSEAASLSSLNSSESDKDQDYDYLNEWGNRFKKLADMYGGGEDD
Procedure: as §1, §2, §3

Neurocan = Neurocan (Homo sapiens, UniProt O14594); experiment: BbHtrA proteolysis assay, neurocan substrate; conditions: SDS-PAGE, FIG. 5
Procedure: as §1, §2, §3

Sequence of Neurocan (O14594 23-1321): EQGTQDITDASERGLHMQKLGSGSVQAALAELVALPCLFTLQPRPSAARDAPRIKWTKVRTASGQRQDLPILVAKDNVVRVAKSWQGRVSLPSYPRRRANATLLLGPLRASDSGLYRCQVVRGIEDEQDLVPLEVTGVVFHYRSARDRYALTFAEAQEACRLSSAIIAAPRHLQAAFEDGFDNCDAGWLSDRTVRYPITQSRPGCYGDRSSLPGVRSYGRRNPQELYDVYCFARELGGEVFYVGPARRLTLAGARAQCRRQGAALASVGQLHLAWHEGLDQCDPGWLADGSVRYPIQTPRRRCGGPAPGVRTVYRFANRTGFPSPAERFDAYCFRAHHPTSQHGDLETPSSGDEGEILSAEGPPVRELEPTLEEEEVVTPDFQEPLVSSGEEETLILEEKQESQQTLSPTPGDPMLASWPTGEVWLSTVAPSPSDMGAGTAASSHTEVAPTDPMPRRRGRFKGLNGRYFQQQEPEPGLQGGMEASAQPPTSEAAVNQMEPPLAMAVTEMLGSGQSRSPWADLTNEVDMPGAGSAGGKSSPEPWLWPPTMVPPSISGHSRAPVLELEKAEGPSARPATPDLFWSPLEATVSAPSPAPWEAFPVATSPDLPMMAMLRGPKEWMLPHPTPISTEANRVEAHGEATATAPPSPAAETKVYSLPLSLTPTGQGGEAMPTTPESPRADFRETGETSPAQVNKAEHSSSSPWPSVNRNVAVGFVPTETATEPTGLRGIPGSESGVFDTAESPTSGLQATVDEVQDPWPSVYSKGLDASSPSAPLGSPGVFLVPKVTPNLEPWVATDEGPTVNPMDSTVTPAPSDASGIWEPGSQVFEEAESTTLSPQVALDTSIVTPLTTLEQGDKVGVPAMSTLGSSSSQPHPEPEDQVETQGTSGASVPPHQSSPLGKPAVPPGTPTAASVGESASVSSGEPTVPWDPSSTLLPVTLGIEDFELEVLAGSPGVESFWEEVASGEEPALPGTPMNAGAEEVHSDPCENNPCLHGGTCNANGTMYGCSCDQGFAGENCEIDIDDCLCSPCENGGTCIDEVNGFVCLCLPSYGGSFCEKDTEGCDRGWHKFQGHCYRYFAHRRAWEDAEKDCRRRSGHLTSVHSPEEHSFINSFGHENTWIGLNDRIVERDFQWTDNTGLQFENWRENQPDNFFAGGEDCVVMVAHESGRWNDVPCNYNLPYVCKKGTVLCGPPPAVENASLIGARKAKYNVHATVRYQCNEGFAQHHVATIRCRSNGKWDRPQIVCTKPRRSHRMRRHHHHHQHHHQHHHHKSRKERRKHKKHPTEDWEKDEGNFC
T2 sequence (P02458 182-1241 limits assumed): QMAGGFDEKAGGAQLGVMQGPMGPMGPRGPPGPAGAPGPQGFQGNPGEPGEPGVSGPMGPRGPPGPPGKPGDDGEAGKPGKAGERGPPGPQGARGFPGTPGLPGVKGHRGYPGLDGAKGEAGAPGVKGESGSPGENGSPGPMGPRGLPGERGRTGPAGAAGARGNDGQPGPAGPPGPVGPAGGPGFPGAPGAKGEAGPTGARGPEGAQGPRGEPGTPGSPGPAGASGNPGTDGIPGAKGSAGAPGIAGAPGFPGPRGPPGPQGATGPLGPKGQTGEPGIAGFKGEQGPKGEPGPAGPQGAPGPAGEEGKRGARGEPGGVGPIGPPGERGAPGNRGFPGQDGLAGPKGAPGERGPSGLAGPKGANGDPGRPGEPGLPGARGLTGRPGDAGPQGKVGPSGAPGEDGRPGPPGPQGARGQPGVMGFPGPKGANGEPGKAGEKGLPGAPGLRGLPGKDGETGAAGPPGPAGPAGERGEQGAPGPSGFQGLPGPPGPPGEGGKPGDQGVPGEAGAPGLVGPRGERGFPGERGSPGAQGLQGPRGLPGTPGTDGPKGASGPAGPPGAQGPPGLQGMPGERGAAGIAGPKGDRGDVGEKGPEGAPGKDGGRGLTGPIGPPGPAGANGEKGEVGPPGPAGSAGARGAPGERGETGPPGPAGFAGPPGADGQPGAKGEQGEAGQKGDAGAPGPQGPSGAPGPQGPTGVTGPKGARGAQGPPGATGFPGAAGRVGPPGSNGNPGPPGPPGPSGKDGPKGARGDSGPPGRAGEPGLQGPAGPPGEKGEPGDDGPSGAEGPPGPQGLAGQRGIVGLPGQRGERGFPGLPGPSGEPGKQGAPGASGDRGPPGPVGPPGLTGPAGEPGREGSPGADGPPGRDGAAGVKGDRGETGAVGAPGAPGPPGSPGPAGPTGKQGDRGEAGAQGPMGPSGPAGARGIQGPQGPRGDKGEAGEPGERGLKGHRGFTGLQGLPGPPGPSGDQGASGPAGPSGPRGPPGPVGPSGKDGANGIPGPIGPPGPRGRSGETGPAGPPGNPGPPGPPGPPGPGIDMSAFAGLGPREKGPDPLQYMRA

B1: BbHtrA: Recombinant wild type B. burgdorferi HtrA serine protease, mature protein amino acids 38-474, expressed in E. coli (SEQ ID NO:1, 9) (protein, listed as Borrelia burgdorferi)
chain: EEKDNTVRALQDSFREVSKKILPSSVEVHATGVIKQSFPIPFFFFDMPEFDSERKSNWAGSGVIIGRDSQKKSLFYVVTNSHVVDKATELEVVSYDKKKHKAKLIGKDEKKDIALISFESDDATIKVADLGDSDKLEIGDWVMAVGSPFQFSFTVTAGIVSGLQRSANPNLQSRNLFIQTDAAINRGNSGGPLVNIKGEVIGINAWIASNSGGNIGLGFAIPVNNIKSTVDFFLKGKKIESAWLGISFYPLKTRDSEVLKSLGVESNDVSAAIIASLYPGSPAVKSGLRAGDIIMKVNGVSMSVFQDVTSYISDFYAGEKVNVEILRGNVKKNIEIVLAVRPKDKELSSSKMLPGFVVYPLVEDIKAQLNLRNWIKGVVVDYIDKNLASNIKMKSGDVILSVNSKSVSNLREFYDALEVGKNTYKILRGNDSFKITF
Question: With B1 as the molecule, how does the “Proteolytic activity against β-casein (clearing around the protein band)” value (β-casein) read?
Answer: Its value is “proteolytically active”.

Question: What about the “Degradation of native collagen II” value (Collagen type II) of the same molecule?
Answer: Its value is “not degraded”.

Question: And the “Degradation of E-cadherin” value (E-cadherin)?
Answer: The value was “degrades”.

Question: And the Degradation of neurocan (Neurocan)?
Answer: Its Degradation of neurocan is “degrades”.
